Reference: patent US20080306007A1 (NEWCASTLE INNOVATION, published 2008)
Where a chain is given by its changes, count along the chain named.

B1: GST-DynI-2D (other, rat, UniProt P21575 746-864, looked up)
chain: NTTTVSTPMPPPVDDSWLQVQSVPAGRRSPTSSPTPQEEAPAVPPARPGSRGPAPGPPPAGSALGGAPPVPSRPGASPDPFGPPPQVPSRPNRAPPGVPSRSGQASPSRPESPRPPFDL
notes: range 746-864; not shown: glutathione S-transferase tag from vector pGEX4T-1
B2: GST-DynI-2E (other, rat, UniProt P21575 746-864, looked up)
chain: B1 chain with E38A, E39A
notes: as for B1
B3: DynI783-796 peptide (peptide)
peptide: RRAPAVPPARPGSR
notes: Synthetic peptide of the site 2 and site 3 region of dynamin I

Columns and labels:
[1] = biological target: T1, syndapin I (native, from rat brain lysate or synaptosomes) (rat, UniProt Q9Z0W5 1-441); experiment: GST pull-down from rat brain lysate
T1 construct: also called PACSIN I; 52 kDa band

[2] = biological target: T2, endophilin I (native, from rat brain lysate or synaptosomes) (rat, UniProt O35179 1-352); experiment: peptide competition in GST-DynI-PRD pull-down from rat brain lysate, Western blot
T2 construct: mature
Protocol: Total rat brain extract was prepared by homogenising brain tissue in ice-cold lysis buffer (1% Triton X-100, 150 mM NaCl, 25 mM Tris pH 7.4, 1 mM EDTA, 1 mM EGTA, 20 μg/ml leupeptin, 1 mM phenylmethylsulfonyl fluoride and EDTA-free Complete protease inhibitor (Roche)). The homogenate was centrifuged twice at 75,600 g for 30 min at 4° C. The supernatant was pre-cleared by addition of GSH-sepharose beads for 1 h, pelleted at 50 g for 5 min at 4° C., and the supernatant collected. GST-DynI-PRD recombinant proteins were then incubated with an equal amount of tissue lysate at 4° C. for 1 h. Beads were washed extensively with ice-cold 20 mM Tris pH 7.4 containing 1 mM EGTA, eluted in 2×SDS-PAGE sample buffer, resolved on 7.5-15% gradient SDS gels and stained with colloidal Coomassie Blue. Identification of proteins was by matrix-assisted laser desorption ionization time-of-flight mass spectrometry (MALDI-TOF MS). Some peptides were sequenced by tandem MS/MS.
A common characteristic of most binding sites for SH3 domains is the presence of the core amino acid motif PxxP, which is often followed or preceded by a basic Arg residue. There are 13 such motifs in the dynamin I PRD (numbered from site 1 at the N-terminus of the PRD at Pro-753 in dynamin I). […]

T1 sequence (Q9Z0W5 whole entry): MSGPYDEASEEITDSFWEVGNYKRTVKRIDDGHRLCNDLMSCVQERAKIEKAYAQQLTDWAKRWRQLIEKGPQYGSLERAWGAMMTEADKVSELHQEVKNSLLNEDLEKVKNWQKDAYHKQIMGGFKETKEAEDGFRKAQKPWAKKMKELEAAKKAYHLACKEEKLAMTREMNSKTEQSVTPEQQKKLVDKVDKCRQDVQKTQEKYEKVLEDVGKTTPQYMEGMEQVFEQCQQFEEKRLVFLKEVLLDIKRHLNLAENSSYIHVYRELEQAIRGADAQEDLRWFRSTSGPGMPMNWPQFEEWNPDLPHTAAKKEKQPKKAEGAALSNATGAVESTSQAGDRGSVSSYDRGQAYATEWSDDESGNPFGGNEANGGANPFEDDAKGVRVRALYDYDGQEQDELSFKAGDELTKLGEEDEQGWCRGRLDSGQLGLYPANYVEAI
T2 sequence (O35179 whole entry): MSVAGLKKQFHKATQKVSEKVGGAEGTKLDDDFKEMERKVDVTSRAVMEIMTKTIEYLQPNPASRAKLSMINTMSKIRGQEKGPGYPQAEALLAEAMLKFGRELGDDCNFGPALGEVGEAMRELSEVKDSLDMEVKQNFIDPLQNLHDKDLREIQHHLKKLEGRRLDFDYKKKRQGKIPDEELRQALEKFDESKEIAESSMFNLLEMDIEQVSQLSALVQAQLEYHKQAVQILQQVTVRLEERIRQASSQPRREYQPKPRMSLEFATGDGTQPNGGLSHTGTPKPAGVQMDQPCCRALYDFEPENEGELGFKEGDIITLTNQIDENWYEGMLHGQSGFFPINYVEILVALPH

Row | Binder | binding result [1] | fold weaker inhibitory effect than on syndapin I binding [2] [fold]
1 | B1 | no binding | 
2 | B2 | no binding | 
3 | B3 |  | 5
